This note sets out measurements from the DeepSol protein solubility set.

The data set in a line: soluble on expression in E. coli; label from the status in PepcDB or PDB records.
Take “MGSDKIHHHHHHMNTPLYKALIQHARRNSHSFHVPGHHNGDVFFDDAKSIFDPLLTIDVTELAGLDDLHHPSGVIKEAQELASQLYGSAESFFLVNGTTVGNLAMILSVCEPGDTILVQRNCHKSVFHAVDLSGAEPVYLAPDVDSAMHVPTHVPLGTIKEALEAYPDAKGLVLTNPTYYGHSADLTEIITEAHHYGIPVLVDEAHGAHFILGEPFPVSALKMGADIVVQSAHKTLPAMTMGSYLHLNSSCRINRDRVAEYLNRLQSSSPSYPIMASLDIARAYVQHIIEEQKLSDILQRIETLKQTFDSLTNAEAVNPANPLIITDPLKLTIRSKRGHSGYTLQSILERANIFTELADENQVLLVLPLGGKRRINAEIIRSIDEEIEKTPPDQTFVSAEWGVQPVTVLPYPKKVLHSFKKEYVSFEEAAGRLNAEDIIPYPPGIPMIMAGERITKESVQKLSRLISMKTHVQGNMKIKEKQLLVYIEEEKS”: the “soluble on expression in E. coli” value was “not soluble”.

As for “MSLRVQANSRSMGVLEDKARARTFYKYLSKVYDRVNTFIWTEEMRAEALSMLDIDAEDRVLDVGCGTGFGTEGLLKHTEHVYGLDQSPHQLTKAWEKFGKHDPVAFHFGDAERLPFKPDSFDVVWSSGSIEYWPHPVQGLRELRRVAKPGSQVLVVGPDYPASTVFRKLADAIMLFYDEDEADRMFREAGYEEIQHRVLRKEPNSPPAIVTVARAPAADDEGHHHHHH”, the “soluble on expression in E. coli” value was “soluble”.

Turning to “MGSVITKETVLQENIYLKKLSGLEPVDDYDPFWNKLLSFSLKFDDDDEDTRIALESALDDHLQCLMYNTQTTGNFAAFIRLFLRRATELKTSEQCENKIYLWQTSNALLILRYIARFLTQRMTEKEFVRIFAKSHESTETESSSTSSSSDEEDDDEQKSENENNNGATKYIPIVFQNTAEEFTYELVSILINISVNETTLAIHVEAVRCLLTLLSSQLYNESIVNTSIVFRFFIDGSCAKHAASLTKTLLLNYLIHNSEYHMTVQKPQESIVFGLASSMWSMVQMATGIDSAEEEKKPPLTLGNLSILLLLNLSCHQPLNSSNPFKETLALFQNAQEVSTLPTQIVSFKIDYNGLYERLCATAGQEPPMLLLYMLLQANSGFRNYVLSRINLENLVVPVLRILHDGVATSNNSHHVYLALIVALILSEDDIFCKIIHETMIKDLGWLDSDFSVREISLGGLTTLVLVRAIQKNALKTRDRYLHTNCLAALANMSAFFKNLAPIVCQRLISLLDLLTKRHAKMVDHMRVSSQNDVADGQPINFHDDITALEEGIRTLLEIINSALCGGLRHNSHLIYNLLYHRALFDAYVQHPMFQDLLVNIAAVISHFSSKVIHVPAGDGSTMLQIIEKEANIWPTDRLAKFPELKFRYVEDEYTVDFFVPYVWRLSVQHSGIYFETSRIKIFNAQSIA”, the “soluble on expression in E. coli” value is “not soluble”.

As to “MGSSHHHHHHSSGLVPRGSHMKRSSPVILVSEDEYGKFDESTNSILVKGKMHHLGISRVIEPGDELIVSGKSFIVSDFSPMYFGRVIRRNTQIISEIDASYIIMRCGLRPGMDILEVGVGSGNMSSYILYALNGKGTLTVVERDEDNLKKAMDNLSEFYDIGNVRTSRSDIADFISDQMYDAVIADIPDPWNHVQKIASMMKPGSVATFYLPNFDQSEKTVLSLSASGMHHLETVELMKRRILVREGATRPASDDLTHTAFITFAIKKSGMVYRI”, the “soluble on expression in E. coli” value is “soluble”.

“TPLLKTEFFPQSDNGYIQIQAEYPVGTGVNLPRAFALRMIDSWEKEIPEIDRTSFSVGQAEASSMFAAMQDNGTNIITFHIGLTGRNERKRSMNEVADQIRTMLDDYPEIHSYKVTPGGSGGGMGGQPTVNLDIYGYDFNKTGDLAERFSRLMKEDARCAQATISRKDYVPEYQFVFDRTKLAENGLNSTTAAMFLRNRVNGRVASTYREEGDEYDIRVRLAPEFRRSLRDLENILIYTPQGKGVRLGELGKIEELYTPPTIERKDRQRVVIVASTAVKGAALSDLVEVAKEKIAQLEIPDGIDYKISGTYEDQQKTFAD”: the “soluble on expression in E. coli” value was “not soluble”.

“MGSDKIHHHHHHEKKDKKENDTSAVQATETDCTAAELVTTEPEGEITISEMIDQRIKEEGKIMIYRMCIAESNTPVEITEDLKVKIISYDGDKLKGYKNPDDFLMETRLGDIIHNKVDYSTYNIGTYGGNWKRHRYVSGGDEKYVEEEGYVQREITTDDSGNNAQLETLYSYSKGTLYSRDAGSKEWNQTEKEDSLDIVSFGTFERIKLDGKTYMTFCVRDNLNLIEYDIIPDNKFTENKTVVYDTPGTEKTTVNTVDYLKEYQAVPKEELEQMIVFPGSKKAESSQAAD”: the “soluble on expression in E. coli” value is on record as “not soluble”.

Turning to “MFVTLEVSDRAPLEATMSTPHHPVAIIGGGLGGLTAARVLHVNGIESAVFDLESGPEARTQGGMLDIHEENGQEAIRAAGLHDEFREIIHEGGQAMRLVGPDGTVRVATEDQGDGGRPEVDRGDLRGLLLNSLPDGTVHWRHKATGARALDDGRHEVTFADGSALTTDLLIGADGAWSRIRPLLSDAEPAYTGISFVESDLHEADTRHPRSAALVGGGFFISLGDRRGFLAHRETDGSLHVYTALRADEGWIDTVDFTDHAAAKAAVLAHFDGWDEGLRSLVAHAETITPRRIHALPVGHRWKRTPGVTLLGDAAHLMSPFAGEGANLAMYDGAELALALAAHPGDTEAALTQYEEGLFPRSEASAVESAGSLDTMFGTDGLEQMIGFFGAGRAEALEHHHHHH”, the “soluble on expression in E. coli” value was “not soluble”.

“MGSDKIHHHHHHLPTIEQNRAPPFLAGLFCAIDLERRFLSNGKQKDFIMLDANTAQNPALLTVGYEGTDLRRFLACLEQSGVKTLVDVRERAQSRKKGFSKTALAEALAGIGIRYVHLRDLGDPKPGRDAARAGDYETFRKVFTSHMDTDAAKSALSELDTLAKEDRTCILCFERCHTECHRAIVATYLKELSPYDVVHVEV”: the “soluble on expression in E. coli” value is “not soluble”.

“MEIFMNYKKSNGLNYILISDTALFQGCSPVETEKLLSGMQFFTKAYKKGVPVYHAGTPVSDIGIVLHGVVQIENNDLWGNKNIISLAQAGEVFAEAYACIPGEPMMVDVIALEDCEILFLNVPRLFQLASSGKGEYSVLIRNLTMISARKNLLLSRRILHTSSKKIRGRLLSYLSHQAELQGSRYIDIPLNRQQLADYLSLDRSALSKELAKMKQDGLLDYHKNSFVLKNV”: the “soluble on expression in E. coli” value was “not soluble”.

As to “MGSDKIHHHHHHAQYTNIQTWGQKLYYNGSDYPGTFLKLKVAVANPRISGTGGKVVFYDSESSQYNYIEVKGVYQSSDARLKTNITPLNSGLGTILGLKPVSYNWKSETSQLRSAEAVPSKAFGFLAQEVAEVMPEIVTLSSTGDSLVDYTAVIPVLVQAVKELDATIQQLELQLDEKANLSDLQNNKNLTSKSLLSNAVMNQNTPNPFNSTTNISFTIPTSARSAFISICNLQGTQVKKFDIATRGEGSIMVSFSDLGVAGMYMYSLVVDGQLISTKRMLLVQ”, the “soluble on expression in E. coli” value is given as “not soluble”.

Turning to “MAHHHHHHMRPSHKRQAQRQHPRQQCSVAHKAQRAPSSVHGTSGVEHLPRDAVVHVALRKQHRPAGQAHRRIKRHRVVPRRHKVAPHKYHSGARHAHSPTHRHRVLAQQEVAVNKRRNRAANCRNTALHRHAQPQRRLHKKPVHVQRTARRQRHAANHQHANSVAEHRRQLRARDVQHAPRQIHVV”, the “soluble on expression in E. coli” value is given as “soluble”.

On to “MGITREELRALVREVVREAVGSLNSSPAQASNQASKPAPPAPPPRATVADQMGLEPTGPRAVEGRNRTETVRLTDDKDLDTFVRKLLRLFESPKTRADLKAGRLRFRLAPGSGAAMANGQAQVTHRIDSGAVTERHIADLAGGTLVLGPRAVLTPLAREKARTLGIVIEKERR”, for which the “soluble on expression in E. coli” value is “not soluble”.

“SLVASGYPLSQTFGHGDIHFLPPELADARTSKIKVPFQSLLCDGEDEFRKGARYVLREGVDFIKIFVTGGVASQKDKPEFPQMTRGEIAAVVEEARRAGRLVHAHAESSEGYINAVEEGVKTLAHGMDLNQDAINLSVEKDVTLIPTLSIVDVALKFGPSNNLPEWMLEKLKEVHEIHAESIKRAYRERVRLATGTDFFIGAKEVQLYGLNSLEIKLLVGLGVKPMDALKAVIKEGEIVKQS”: the “soluble on expression in E. coli” value is “not soluble”.

As to “MSLAIPTRNEVSDDLKWDLSRVFKDDQEWEQEYNRVAIEIKNLGRFKGNLAKSGQDLYEGITEILSVNRRLEKVYVYATMSSDVDTSNTHYLGLVAKAQSLANQMSAAISFVDPEILSIPEETLAKFMQDEPRLKEYQHRLEQITKKRPHTLPASEEKIIAAAGDAMGTSANTFNVLTNSDMEYGYVQDEDGEMVQLSDGLYSLLIQSQDRNVRKNAFDVMYASYGQFENSLASTLSGEVKAHNFNAQVHKYNSAREAALSENGVPTAVYDTLVKEVNSHLNLLHRYVSLRKKILGLSDLQMYDMYVPLTGEPSLSYNFEEAKNEARRALAPLGKDYLEHVDYIFNNRVIDVVESQNKVTGAYSGGSYDTDPYELLNWEDNLDSLYTLVHETGHSVHSWYTRNTQPYVYGDYPIFVAEIASTTNENILTEYFLDKITDPKTRAFVLNHYLDSFKGTLFRQTQFAEFEQFIHEADANGQPLTADVLDEFYGNLNQRYYGDSVEPGGEIAKEWARIPHFYYNFYVYQYATGFAAATALANNVVHGTDKERTAYINFLKAGSSDYPTEIMKRAGVDMTKADYLKDAFNTFEERLNEFEKIVDELKTEGHHHHHH”, the “soluble on expression in E. coli” value is on record as “soluble”.

On to “MYGRKLYNVDQTNVYASLMFETEFNKQNSFSAGLSFNYDAYDQHYRLENQTELPLIKAFAKEAVPGAYAQYTLNLNDQWMLMAGLRGDYSNEHGFFVTPRAHLKYNPNEYVHFRLSAGKGYRTNHVLAENNYLLSSSRKVEIAKGLDMEEAWNYGASVSTYVPVFGKTLNINAEYYYTDFLKQVVVDMDSNPHEVAFYNLDGRSYSHVFQVEASYPFFKGFTLTGAYRLTDAQTTYKGQRMEKPLTSKYKGLLTASYQTPLGIWQFDATLQLNGGGRMPSPYELADGQLSWERRYGSFEQLSAQITRYFRRWSVYIGGENLTNFKQKNPIIDAANPWGGNFDSTMIWGPVHGAKAYIGIRFNLARNE”, for which the “soluble on expression in E. coli” value was “not soluble”.

For the sequence “MSDPHQSQQLVTAGTALSEASAAAVLVHGRGATARSIVQMGAEFQQDGLALLAPQAARNTWYPNSFLSPVEQNEPGRSSGLQAIEDAVTKAAEAGIPTDHVLILGFSQGACLASEFVARNPQRYGGLVALSGGLIGESIDESEYEGDIEETPVFLGCSNVDPHIPEERVHVTASVFERLNGDVEERIYEGMGHGVNEDELAYVSSLTAGLVN”, the “soluble on expression in E. coli” value was “not soluble”.

For the sequence “MNQKDVKLTVFSSDEKSFMVTATLVEKAGHAFLINSKFTQSDSKEIVEYLKKNNLSLDKIFIIHGDPDYYFGLESIKAVYPEAIAYATESTVEHIVHSVLGKLKVWKDALGENAPSNVVLPQVFKEKAIDFQGLTFELVGLEHYRTSLFNKELKVLIGGIDVFNEIHVFLADTSSKAAMEAWIENLKVLQALHADIIVPSHGSIEKSLNNQALTATMDYLRTAVQASEESGTSKDFVAKLEAAYPDYANKGVLELSAKVVTKELEHHHHHH”, the “soluble on expression in E. coli” value is given as “not soluble”.

With “MSLADLTSLSIEHLRSPRLYTHRLILRPWLVQDRARFAELNADPLVMEFFPSCLDRAQSDALLRRIDAHFAEHGFGWWALQVKGGDPFIGYVGLEVVDFDAPFVPAVAIGWRLAAEHWAEGFAHEAAEAALSYAFDTLGLDQVVAFTVPANENSLGLMERLGMHRDPTDDFEHPDLPPGHRLRHHVLYRLTREDWLRREGGSHHHHHH”, the “soluble on expression in E. coli” value was “soluble”.
